Laboratory results from publication PMC7094341.

Molecular target: SARS-CoV papain-like protease (PLpro), trypsin-trimmed product of P-PLpro(C2)-His6 (SARS-CoV)

ISG15-AMC (full-length) (from UniProt P05161 1-157)
kcat/KM of hydrolysis of ISG15-AMC by PLpro (fluorescence, pH 7.8, 25 °C): 602000 M⁻¹ s⁻¹
